Measurements as given in patent publication US20240174764A1 (Memorial Sloan Kettering, published 2024).

Assays:
[1] = target: T1, BTM protein (synthetic fusion protein of the highly conserved extracellular portion of MUC16^c57-114 fused to … (human, UniProt Q8WXI7 14394-14451)); test: SPR (BiaCore X100), His-tagged BiTED on NTA chip, BTM as analyte, 1:1 model
T1 construct: domain: highly conserved extracellular portion of MUC16^c57-114; also called MUC16 BTM protein; Muc16 BTM protein; not shown: human Fc (pFUSE backbone)
T1 sequence: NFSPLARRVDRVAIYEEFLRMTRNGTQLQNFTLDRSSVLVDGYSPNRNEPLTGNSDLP
Experimental: (§1) Kinetic Analysis of BiTEDs binding to MUC16^ecto. The kinetic analysis of EXT170-8 BiTEDs and Muc16 BTM protein (55mer highly conserved ectodomain region of MUC16) was performed on a BiaCore X100 instrument loaded with an NTA sensor chip. EXT170-8 BiTED comprises the amino acid of SEQ ID NO: 89 and the leader sequence of SEQ ID NO: 93.
(§2) The raw data was analyzed using the kinetic model 1:1 binding by Biacore X100 evaluation software.
MUC16^ecto-BiTEDs were purified and confirmed by SDS-page (FIG. 1(c)). To determine the binding affinity of BiTEDs to MUC16^ecto, a previously validated BTM protein (a synthetic fusion protein consisting of the highly conserved extracellular portion of MUC16^c57-114 fused to a human Fc backbone pFUSE) was used, and kinetic analysis was performed using surface plasmon resonance.

[2] = target: T1, BTM protein (synthetic fusion protein …); test: SPR, BiaCore X100, His-tagged EXT170-8 BiTEDs immobilised on an NTA sensor chip, MUC16 BTM protein injected at 35.625 to 570 nM, 1:1 binding model [d]
Experimental: as §1, §2

B1: EXT170-8 BiTED (MUC16^ecto-specific Bispecific T-cell engaging diabody, Clone 8 (LH)/anti-CD3 bispecific antibody) (bispecific antibody)
chain: DIQLTQSPSAVSASVGDRVTITCRASQDVSKWLAWYQQKPGKAPRLLISAASGLQSWVPSRFSGSGSGTEFTLSISSLQPEDFATYYCQQANSFPWTFGQGTKVEIKRSRGGGGSGGGGSGGGGSLEMAQVQLQQWGAGLLKPSETLSLTCAVYGGSFSGYYWSWIRQPPGKGLEWIGEINHSGSTNYNPSLKSRVTISVDTSKNQFSLKLSSVTAADTAVYYCARQSYITDSWGQGTLVTVSSTSGGGGSDVQLVQSGAEVKKPGASVKVSCKASGYTFTRYTMHWVRQAPGQGLEWIGYINPSRGYTNYADSVKGRFTITTDKSTSTAYMELSSLRSEDTATYYCARYYDDHYCLDYWGQGTTVTVSSGEGTSTGSGGSGGSGGADDIVLTQSPATLSLSPGERATLSCRASQSVSYMNWYQQKPGKAPKRWIYDTSKVASGVPARFSGSGSGTDYSLTINSLEAEDAATYYCQQWSSNPLTFGGGTKVEIKHHHHHH
notes: The molecule was His-tagged in SPR and biotinylated in ELISA; also called MUC16^ecto-BiTEDs; EXT170-8 BiTEDs
B1 gave a Kd [1] of 69.9 nM, a koff [2] of 0.0157 s⁻¹ and a kon [2] of 224000 M⁻¹ s⁻¹.
